Measured values from patent US20080206239A1 (ANTITOPE, published 2008).

target: human TNFα (human, UniProt P01375 77-233); test: cell-based or functional assay
Sequence (P01375 77-233 limits assumed): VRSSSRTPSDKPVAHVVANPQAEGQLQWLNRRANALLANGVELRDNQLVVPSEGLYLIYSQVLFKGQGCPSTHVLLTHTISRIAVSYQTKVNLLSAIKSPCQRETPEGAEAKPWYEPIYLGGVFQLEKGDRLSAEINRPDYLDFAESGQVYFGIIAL

Binder	Ratio of Activities compared to Chimeric Antibody (fold difference, WEHI-164 protection assay at 25 ng/ml) [fold]
antibody of heavy chain SEQ. ID. No. 1 and light chain SEQ. ID. No. 4 (antibody, human IgG1, V domains shown) VH: EVKLEESGGGLVQPGGSMKLSCVASGFIFSNHWMNWVRQSPEKGLEWVAEIRSKSINSATHYAESVKGRFTISRDDSKSAVYLQMTDLRTEDTGVYYCSRNYYGSTYDYWGQGTTLTVSS VL: DILLTQSPAILSLSPGERATLSCRASQFVGSSIHWYQQKTNQSPKLLIKYASESMSGIPSRFSGSGSGTDFTLTINSLESEDAADYYCQQSHSWPFTFGQGTNLEIK	1.51
Composite Human Antibody of heavy chain SEQ. ID. No. 6 and light chain SEQ. ID. No. 11 (antibody, human IgG1, V domains shown) VH: EVQLVESGGGLVQPGGSLKLSCVASGFIFSNHWMNWVRQAPGKGLEWVAEIRSKSINSATHYAESVKGRFTISRDDSKSIVYLQMNSLKTEDTGVYYCSRNYYGSTYDYWGQGTTVTVSS VL: DILLTQSPATLSLSPGERATLSCRASQFVGSSIHWYQQKTDQSPKLLIKYASESMSGIPSRFSGSGSGTDFTLTINSLEAEDAADYYCQQSHSWPFTFGQGTRLEIK	134
Composite Human Antibody of heavy chain SEQ. ID. No. 3 and light chain SEQ. ID. No. 9 (antibody, human IgG1, V domains shown) VH: EVQLVESGGGLVQPGGSLKLSCVASGFIFSNHWMNWVRQAPGKGLEWVAEIRSKSINSATHYAESVKGRFTISRDDSKSIVYLQMTDLRTEDTGVYYCSRNYYGSTYDYWGQGTTVTVSS VL: DILLTQSPATLSLSPGERATLSCRASQFVGSSIHWYQQKTNQSPKLLIKYASESMSGIPSRFSGSGSGTDFTLTINSLESEDAADYYCQQSHSWPFTFGQGTRLEIK	2.14
Composite Human Antibody 7/10 (i.e. containing SEQ. ID. No.s 7 and 10) (antibody, human IgG1, V domains shown) VH: EVQLVESGGGLVQPGGSLKLSCAASGFIFSNHWMNWVRQAPGKGLEWVAEIRSKSINSATHYAESVKGRFTISRDDSKSIVYLQMNSLKTEDTGVYYCSRNYYGSTYDYWGQGTTVTVSS VL: DILLTQSPATLSLSPGERATLSCRASQFVGSSIHWYQQKTNQSPKLLIKYASESMSGIPSRFSGSGSGTDFTLTINSLEAEDAADYYCQQSHSWPFTFGQGTRLEIK	0.98
Composite Human Antibody of heavy chain SEQ. ID. No. 6 and light chain SEQ. ID. No. 4 (antibody, human IgG1, V domains shown) VH: EVQLVESGGGLVQPGGSLKLSCVASGFIFSNHWMNWVRQAPGKGLEWVAEIRSKSINSATHYAESVKGRFTISRDDSKSIVYLQMNSLKTEDTGVYYCSRNYYGSTYDYWGQGTTVTVSS VL: DILLTQSPAILSLSPGERATLSCRASQFVGSSIHWYQQKTNQSPKLLIKYASESMSGIPSRFSGSGSGTDFTLTINSLESEDAADYYCQQSHSWPFTFGQGTNLEIK	1.38
Composite Human Antibody of heavy chain SEQ. ID. No. 5 and light chain SEQ. ID. No. 9 (antibody, human IgG1, V domains shown) VH: EVQLVESGGGLVQPGGSLKLSCVASGFIFSNHWMNWVRQAPGKGLEWVAEIRSKSINSATHYAESVKGRFTISRDDSKSIVYLQMNDLKTEDTGVYYCSRNYYGSTYDYWGQGTTVTVSS VL: DILLTQSPATLSLSPGERATLSCRASQFVGSSIHWYQQKTNQSPKLLIKYASESMSGIPSRFSGSGSGTDFTLTINSLESEDAADYYCQQSHSWPFTFGQGTRLEIK	1.32
antibody of heavy chain SEQ. ID. No. 1 and light chain SEQ. ID. No. 11 (antibody, human IgG1, V domains shown) VH: EVKLEESGGGLVQPGGSMKLSCVASGFIFSNHWMNWVRQSPEKGLEWVAEIRSKSINSATHYAESVKGRFTISRDDSKSAVYLQMTDLRTEDTGVYYCSRNYYGSTYDYWGQGTTLTVSS VL: DILLTQSPATLSLSPGERATLSCRASQFVGSSIHWYQQKTDQSPKLLIKYASESMSGIPSRFSGSGSGTDFTLTINSLEAEDAADYYCQQSHSWPFTFGQGTRLEIK	16.9
Composite Human Antibody of heavy chain SEQ. ID. No. 3 and light chain SEQ. ID. No. 11 (antibody, human IgG1, V domains shown) VH: EVQLVESGGGLVQPGGSLKLSCVASGFIFSNHWMNWVRQAPGKGLEWVAEIRSKSINSATHYAESVKGRFTISRDDSKSIVYLQMTDLRTEDTGVYYCSRNYYGSTYDYWGQGTTVTVSS VL: DILLTQSPATLSLSPGERATLSCRASQFVGSSIHWYQQKTDQSPKLLIKYASESMSGIPSRFSGSGSGTDFTLTINSLEAEDAADYYCQQSHSWPFTFGQGTRLEIK	15.2
Composite Human Antibody of heavy chain SEQ. ID. No. 5 and light chain SEQ. ID. No. 4 (antibody, human IgG1, V domains shown) VH: EVQLVESGGGLVQPGGSLKLSCVASGFIFSNHWMNWVRQAPGKGLEWVAEIRSKSINSATHYAESVKGRFTISRDDSKSIVYLQMNDLKTEDTGVYYCSRNYYGSTYDYWGQGTTVTVSS VL: DILLTQSPAILSLSPGERATLSCRASQFVGSSIHWYQQKTNQSPKLLIKYASESMSGIPSRFSGSGSGTDFTLTINSLESEDAADYYCQQSHSWPFTFGQGTNLEIK	1.28
antibody of heavy chain SEQ. ID. No. 1 and light chain SEQ. ID. No. 10 (antibody, human IgG1, V domains shown) VH: EVKLEESGGGLVQPGGSMKLSCVASGFIFSNHWMNWVRQSPEKGLEWVAEIRSKSINSATHYAESVKGRFTISRDDSKSAVYLQMTDLRTEDTGVYYCSRNYYGSTYDYWGQGTTLTVSS VL: DILLTQSPATLSLSPGERATLSCRASQFVGSSIHWYQQKTNQSPKLLIKYASESMSGIPSRFSGSGSGTDFTLTINSLEAEDAADYYCQQSHSWPFTFGQGTRLEIK	1.31
Composite Human Antibody 7/9 (antibody, human IgG1, V domains shown) VH: EVQLVESGGGLVQPGGSLKLSCAASGFIFSNHWMNWVRQAPGKGLEWVAEIRSKSINSATHYAESVKGRFTISRDDSKSIVYLQMNSLKTEDTGVYYCSRNYYGSTYDYWGQGTTVTVSS VL: DILLTQSPATLSLSPGERATLSCRASQFVGSSIHWYQQKTNQSPKLLIKYASESMSGIPSRFSGSGSGTDFTLTINSLESEDAADYYCQQSHSWPFTFGQGTRLEIK	0.95
antibody of heavy chain SEQ. ID. No. 1 and light chain SEQ. ID. No. 9 (antibody, human IgG1, V domains shown) VH: EVKLEESGGGLVQPGGSMKLSCVASGFIFSNHWMNWVRQSPEKGLEWVAEIRSKSINSATHYAESVKGRFTISRDDSKSAVYLQMTDLRTEDTGVYYCSRNYYGSTYDYWGQGTTLTVSS VL: DILLTQSPATLSLSPGERATLSCRASQFVGSSIHWYQQKTNQSPKLLIKYASESMSGIPSRFSGSGSGTDFTLTINSLESEDAADYYCQQSHSWPFTFGQGTRLEIK	1.28
primary Composite Human Antibody (heavy chain SEQ. ID. No. 3 and light chain SEQ. ID. No. 4) (antibody, human IgG1, V domains shown) VH: EVQLVESGGGLVQPGGSLKLSCVASGFIFSNHWMNWVRQAPGKGLEWVAEIRSKSINSATHYAESVKGRFTISRDDSKSIVYLQMTDLRTEDTGVYYCSRNYYGSTYDYWGQGTTVTVSS VL: DILLTQSPAILSLSPGERATLSCRASQFVGSSIHWYQQKTNQSPKLLIKYASESMSGIPSRFSGSGSGTDFTLTINSLESEDAADYYCQQSHSWPFTFGQGTNLEIK	2.28
Composite Human Antibody of heavy chain SEQ. ID. No. 5 and light chain SEQ. ID. No. 11 (antibody, human IgG1, V domains shown) VH: EVQLVESGGGLVQPGGSLKLSCVASGFIFSNHWMNWVRQAPGKGLEWVAEIRSKSINSATHYAESVKGRFTISRDDSKSIVYLQMNDLKTEDTGVYYCSRNYYGSTYDYWGQGTTVTVSS VL: DILLTQSPATLSLSPGERATLSCRASQFVGSSIHWYQQKTDQSPKLLIKYASESMSGIPSRFSGSGSGTDFTLTINSLEAEDAADYYCQQSHSWPFTFGQGTRLEIK	196
Composite Human Antibody 7/4 (antibody, human IgG1, V domains shown) VH: EVQLVESGGGLVQPGGSLKLSCAASGFIFSNHWMNWVRQAPGKGLEWVAEIRSKSINSATHYAESVKGRFTISRDDSKSIVYLQMNSLKTEDTGVYYCSRNYYGSTYDYWGQGTTVTVSS VL: DILLTQSPAILSLSPGERATLSCRASQFVGSSIHWYQQKTNQSPKLLIKYASESMSGIPSRFSGSGSGTDFTLTINSLESEDAADYYCQQSHSWPFTFGQGTNLEIK	1.05
Composite Human Antibody of heavy chain SEQ. ID. No. 6 and light chain SEQ. ID. No. 9 (antibody, human IgG1, V domains shown) VH: EVQLVESGGGLVQPGGSLKLSCVASGFIFSNHWMNWVRQAPGKGLEWVAEIRSKSINSATHYAESVKGRFTISRDDSKSIVYLQMNSLKTEDTGVYYCSRNYYGSTYDYWGQGTTVTVSS VL: DILLTQSPATLSLSPGERATLSCRASQFVGSSIHWYQQKTNQSPKLLIKYASESMSGIPSRFSGSGSGTDFTLTINSLESEDAADYYCQQSHSWPFTFGQGTRLEIK	1.77
Composite Human Antibody of heavy chain SEQ. ID. No. 6 and light chain SEQ. ID. No. 10 (antibody, human IgG1, V domains shown) VH: EVQLVESGGGLVQPGGSLKLSCVASGFIFSNHWMNWVRQAPGKGLEWVAEIRSKSINSATHYAESVKGRFTISRDDSKSIVYLQMNSLKTEDTGVYYCSRNYYGSTYDYWGQGTTVTVSS VL: DILLTQSPATLSLSPGERATLSCRASQFVGSSIHWYQQKTNQSPKLLIKYASESMSGIPSRFSGSGSGTDFTLTINSLEAEDAADYYCQQSHSWPFTFGQGTRLEIK	1.63
Composite Human Antibody of heavy chain SEQ. ID. No. 3 and light chain SEQ. ID. No. 10 (antibody, human IgG1, V domains shown) VH: EVQLVESGGGLVQPGGSLKLSCVASGFIFSNHWMNWVRQAPGKGLEWVAEIRSKSINSATHYAESVKGRFTISRDDSKSIVYLQMTDLRTEDTGVYYCSRNYYGSTYDYWGQGTTVTVSS VL: DILLTQSPATLSLSPGERATLSCRASQFVGSSIHWYQQKTNQSPKLLIKYASESMSGIPSRFSGSGSGTDFTLTINSLEAEDAADYYCQQSHSWPFTFGQGTRLEIK	2.51
Composite Human Antibody 5/10 (antibody, human IgG1, V domains shown) VH: EVQLVESGGGLVQPGGSLKLSCVASGFIFSNHWMNWVRQAPGKGLEWVAEIRSKSINSATHYAESVKGRFTISRDDSKSIVYLQMNDLKTEDTGVYYCSRNYYGSTYDYWGQGTTVTVSS VL: DILLTQSPATLSLSPGERATLSCRASQFVGSSIHWYQQKTNQSPKLLIKYASESMSGIPSRFSGSGSGTDFTLTINSLEAEDAADYYCQQSHSWPFTFGQGTRLEIK	1.17
Composite Human Antibody of heavy chain SEQ. ID. No. 7 and light chain SEQ. ID. No. 11 (antibody, human IgG1, V domains shown) VH: EVQLVESGGGLVQPGGSLKLSCAASGFIFSNHWMNWVRQAPGKGLEWVAEIRSKSINSATHYAESVKGRFTISRDDSKSIVYLQMNSLKTEDTGVYYCSRNYYGSTYDYWGQGTTVTVSS VL: DILLTQSPATLSLSPGERATLSCRASQFVGSSIHWYQQKTDQSPKLLIKYASESMSGIPSRFSGSGSGTDFTLTINSLEAEDAADYYCQQSHSWPFTFGQGTRLEIK	106
